Consider 67 sequences from the supplement of paper PMC10724198.

Data set [1] deals with Saccharomyces cerevisiae. In words: protein stability index of tFT-peptide fusion in wild type (PSI (0-1 scale)); higher = more stable (slower turnover). The conditions noted are these: genetic background: wild type. On the procedure:
(§1)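 MPS profiling in S. cerevisiae of two library types built from selected 12-aa C-degron peptides (IN1, IN2, LN1, LN3, VN2, R1-R5, W1-W3, Atg1 and Rpa12 C-termini): saturation mutagenesis libraries and C-terminal +1 capping libraries (13 aa). Each peptide is fused to the C-terminus of a sfGFP-mCherry timer, after a GGGS linker. Cells are FACS-sorted into 8 mCherry/sfGFP bins and sequenced. PSI runs from 0 (unstable) to 1 (stable), measured once in wild type and in the das1Δ or doa10Δ background.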

Data set [2] deals with Saccharomyces cerevisiae. In words: protein stability index of tFT-peptide fusion in deletion strain of DAS1 (PSI (0-1 scale)); higher = more stable (slower turnover). How it is done: as §1
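For protein stability index of tFT-peptide fusion in deletion strain of DAS1 in this document: PSI is a weighted mean of each variant's read distribution over the sorted stability bins, computed only for variants having over 10 reads in total.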
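For protein stability index of tFT-peptide fusion in wild type in this document: PSI derived as read-weighted mean over the 8 sorting bins, only variants exceeding 10 total reads kept, mCherry placed adjacent to the peptide and sfGFP distal.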

Regarding FDKRNHLIKLLN, the protein stability index with Saccharomyces cerevisiae [1] was 0.131; with Saccharomyces cerevisiae [2] it was 0.589.

In the case of FHMRWTFRYWVN, the protein stability index in the data set on Saccharomyces cerevisiae [1] was 0.0327; in the data set on Saccharomyces cerevisiae [2] it was 0.466.

As to FLIQPLPVQFLN, the figures for the protein stability index in the data set on Saccharomyces cerevisiae [1] and in the data set on Saccharomyces cerevisiae [2] were 0.0527 and 0.582, respectively.

Consider FSIRWTFRYWVN, for which the protein stability index with Saccharomyces cerevisiae [1] was found to be 0.0207; in the data set on Saccharomyces cerevisiae [2], 0.335.

FSMRDTFRYWVN: the protein stability index is 0.0684 in the data set with Saccharomyces cerevisiae [1] and 0.833 with Saccharomyces cerevisiae [2].

On to FSMRVTFRYWVN, for which the figures for the protein stability index in the data set on Saccharomyces cerevisiae [1] and with Saccharomyces cerevisiae [2] were 0.0315 and 0.352, respectively.

FSMRWAFRYWVN: the protein stability index was 0.115 in the data set on Saccharomyces cerevisiae [1] and 0.58 with Saccharomyces cerevisiae [2].

For the sequence FSMRWLFRYWVN, the values for the protein stability index with Saccharomyces cerevisiae [1] and in the data set on Saccharomyces cerevisiae [2] were 0.0905 and 0.573, respectively.

Take FSMRWSFRYWVN: the protein stability index with Saccharomyces cerevisiae [1] worked out at 0.0724; with Saccharomyces cerevisiae [2], 0.544.

FSMRWTDRYWVN: the figures for the protein stability index in the data set on Saccharomyces cerevisiae [1] and in the data set with Saccharomyces cerevisiae [2] were 0.0929 and 0.568, respectively.

Regarding FSMRWTFRFWVN, the protein stability index worked out at 0.052 in the data set with Saccharomyces cerevisiae [1] and 0.419 in the data set with Saccharomyces cerevisiae [2].

On to FSMRWTFRIWVN, for which the protein stability index in the data set on Saccharomyces cerevisiae [1] is 0.0523; in the data set with Saccharomyces cerevisiae [2], 0.288.

FSMRWTFRSWVN: the protein stability index in the data set on Saccharomyces cerevisiae [1] was found to be 0.272; in the data set with Saccharomyces cerevisiae [2] it was 0.515.

Consider FSMRWTFRYHVN, for which the protein stability index in the data set on Saccharomyces cerevisiae [1] was 0.035; in the data set on Saccharomyces cerevisiae [2] it was 0.472.

Consider FSMRWTFRYNVN, for which the protein stability index in the data set with Saccharomyces cerevisiae [1] turned out to be 0.214; with Saccharomyces cerevisiae [2], 0.568.

With FSMRWTFRYVVN, the protein stability index in the data set on Saccharomyces cerevisiae [1] is 0.117; with Saccharomyces cerevisiae [2], 0.496.

For the sequence FSMRWTFRYWDN, the results for the protein stability index with Saccharomyces cerevisiae [1] and in the data set on Saccharomyces cerevisiae [2] were 0.0861 and 0.554, respectively.

Turning to FSMRWTFRYWRN, the protein stability index in the data set with Saccharomyces cerevisiae [1] amounted to 0.653; with Saccharomyces cerevisiae [2] it was 0.531.

Take FSMRWTFRYWVC: the figures for the protein stability index in the data set with Saccharomyces cerevisiae [1] and in the data set with Saccharomyces cerevisiae [2] were 0.0396 and 0.403, respectively.

Consider FSMRWTFRYWVD, for which the figures for the protein stability index in the data set on Saccharomyces cerevisiae [1] and in the data set on Saccharomyces cerevisiae [2] were 0.46 and 0.467, respectively.

FSMRWTFRYWVNN: the protein stability index stood at 0.137 in the data set with Saccharomyces cerevisiae [1] and 0.558 with Saccharomyces cerevisiae [2].

Take FSMRWTFRYWVNQ: the protein stability index in the data set on Saccharomyces cerevisiae [1] turned out to be 0.141; with Saccharomyces cerevisiae [2] it was 0.558.

For FSMRWTFRYWVQ, the figures for the protein stability index with Saccharomyces cerevisiae [1] and with Saccharomyces cerevisiae [2] were 0.205 and 0.48, respectively.

Take FSMRWTFRYWVY: the protein stability index is 0.0725 in the data set on Saccharomyces cerevisiae [1] and 0.374 in the data set on Saccharomyces cerevisiae [2].

In the case of FSMRWTFRYYVN, the protein stability index turned out to be 0.0506 in the data set with Saccharomyces cerevisiae [1] and 0.482 in the data set with Saccharomyces cerevisiae [2].

Turning to FSMRWTHRYWVN, the results for the protein stability index with Saccharomyces cerevisiae [1] and with Saccharomyces cerevisiae [2] were 0.0511 and 0.561, respectively.

For the sequence FSMWWTFRYWVN, the protein stability index in the data set with Saccharomyces cerevisiae [1] was determined as 0.077; in the data set on Saccharomyces cerevisiae [2], 0.444.

Consider FSNRWTFRYWVN, for which the results for the protein stability index in the data set on Saccharomyces cerevisiae [1] and in the data set on Saccharomyces cerevisiae [2] were 0.0838 and 0.617, respectively.

Regarding GKHKKGQKQKIN, the protein stability index with Saccharomyces cerevisiae [1] stood at 0.133; in the data set with Saccharomyces cerevisiae [2], 0.585.

In the case of GLIQPLPVQFLN, the protein stability index in the data set with Saccharomyces cerevisiae [1] was 0.0806; with Saccharomyces cerevisiae [2], 0.62.

For HDKRNHLIKLLN, the values for the protein stability index in the data set with Saccharomyces cerevisiae [1] and in the data set with Saccharomyces cerevisiae [2] were 0.077 and 0.581, respectively.

As to HKILRQKMNHQN, the protein stability index with Saccharomyces cerevisiae [1] came to 0.168; with Saccharomyces cerevisiae [2], 0.683.

In the case of IVVYLSCVACIN, the protein stability index with Saccharomyces cerevisiae [1] was found to be 0.0176; with Saccharomyces cerevisiae [2], 0.0302.

Regarding KKHAKGQKQKIN, the protein stability index with Saccharomyces cerevisiae [1] stood at 0.121; with Saccharomyces cerevisiae [2] it was 0.565.

In the case of KKHKKGPKQKIN, the values for the protein stability index in the data set with Saccharomyces cerevisiae [1] and in the data set on Saccharomyces cerevisiae [2] were 0.175 and 0.603, respectively.

For the sequence KKHKKGQAQKIN, the protein stability index stood at 0.0853 in the data set with Saccharomyces cerevisiae [1] and 0.605 in the data set with Saccharomyces cerevisiae [2].

Consider KKHKKGQKIKIN, for which the protein stability index in the data set on Saccharomyces cerevisiae [1] was found to be 0.294; in the data set on Saccharomyces cerevisiae [2] it was 0.576.

As to KKHKKGQKQEIN, the figures for the protein stability index with Saccharomyces cerevisiae [1] and in the data set on Saccharomyces cerevisiae [2] were 0.591 and 0.589, respectively.

KKHKKGQKQKAN: the results for the protein stability index with Saccharomyces cerevisiae [1] and in the data set on Saccharomyces cerevisiae [2] were 0.308 and 0.709, respectively.

For KKHKKGQKQKIK, the figures for the protein stability index with Saccharomyces cerevisiae [1] and in the data set on Saccharomyces cerevisiae [2] were 0.634 and 0.553, respectively.

In the case of KKHKKGQKQKIL, the protein stability index with Saccharomyces cerevisiae [1] is 0.222; with Saccharomyces cerevisiae [2], 0.595.

As for KKHKKGQKQKIS, the protein stability index in the data set on Saccharomyces cerevisiae [1] is 0.101; with Saccharomyces cerevisiae [2], 0.607.

As to KKHKKGQKQMIN, the protein stability index with Saccharomyces cerevisiae [1] came out at 0.117; with Saccharomyces cerevisiae [2], 0.591.

KKHKKGQKVKIN: the protein stability index in the data set with Saccharomyces cerevisiae [1] worked out at 0.225; in the data set on Saccharomyces cerevisiae [2], 0.615.

Regarding KKHKKGQLQKIN, the protein stability index in the data set on Saccharomyces cerevisiae [1] was found to be 0.121; in the data set with Saccharomyces cerevisiae [2], 0.628.

With KKHKKGQNQKIN, the protein stability index with Saccharomyces cerevisiae [1] amounted to 0.191; in the data set with Saccharomyces cerevisiae [2], 0.625.

Turning to KKHKKQQKQKIN, the protein stability index with Saccharomyces cerevisiae [1] came to 0.0595; with Saccharomyces cerevisiae [2], 0.59.

Regarding KLHKKGQKQKIN, the protein stability index worked out at 0.0703 in the data set on Saccharomyces cerevisiae [1] and 0.612 in the data set on Saccharomyces cerevisiae [2].

Consider KTSCGYKFRTNN, for which the values for the protein stability index in the data set with Saccharomyces cerevisiae [1] and with Saccharomyces cerevisiae [2] were 0.225 and 0.679, respectively.

As to LDKRNHLIKLLN, the results for the protein stability index with Saccharomyces cerevisiae [1] and in the data set with Saccharomyces cerevisiae [2] were 0.137 and 0.599, respectively.

Regarding LEVYLSCVACIN, the protein stability index worked out at 0.0193 in the data set with Saccharomyces cerevisiae [1] and 0.0737 in the data set with Saccharomyces cerevisiae [2].

As for LKILDQKMNHQN, the protein stability index in the data set on Saccharomyces cerevisiae [1] came to 0.648; with Saccharomyces cerevisiae [2] it was 0.691.

As for LKILRLKMNHQN, the values for the protein stability index with Saccharomyces cerevisiae [1] and in the data set with Saccharomyces cerevisiae [2] were 0.171 and 0.65, respectively.

With LKILRQIMNHQN, the protein stability index turned out to be 0.244 with Saccharomyces cerevisiae [1] and 0.693 in the data set on Saccharomyces cerevisiae [2].

LKILRQKDNHQN: the protein stability index worked out at 0.664 in the data set with Saccharomyces cerevisiae [1] and 0.666 in the data set with Saccharomyces cerevisiae [2].

On to LKILRQKMNHQC, for which the protein stability index is 0.184 with Saccharomyces cerevisiae [1] and 0.635 in the data set on Saccharomyces cerevisiae [2].

Take LKILRQKMNHSN: the protein stability index amounted to 0.231 with Saccharomyces cerevisiae [1] and 0.674 with Saccharomyces cerevisiae [2].

In the case of LKILRQKMNLQN, the protein stability index worked out at 0.221 with Saccharomyces cerevisiae [1] and 0.666 in the data set on Saccharomyces cerevisiae [2].

With LKILRQKMNWQN, the protein stability index in the data set with Saccharomyces cerevisiae [1] stood at 0.286; with Saccharomyces cerevisiae [2], 0.661.

Regarding LKILRQKMYHQN, the protein stability index worked out at 0.249 with Saccharomyces cerevisiae [1] and 0.658 in the data set on Saccharomyces cerevisiae [2].

On to LKILRQLMNHQN, for which the protein stability index in the data set on Saccharomyces cerevisiae [1] is 0.219; with Saccharomyces cerevisiae [2] it was 0.665.

As for LKILRQPMNHQN, the results for the protein stability index with Saccharomyces cerevisiae [1] and with Saccharomyces cerevisiae [2] were 0.658 and 0.68, respectively.

On to LKILRQWMNHQN, for which the figures for the protein stability index with Saccharomyces cerevisiae [1] and with Saccharomyces cerevisiae [2] were 0.184 and 0.693, respectively.

Turning to LKILRQYMNHQN, the protein stability index in the data set with Saccharomyces cerevisiae [1] worked out at 0.242; in the data set on Saccharomyces cerevisiae [2] it was 0.675.

As for LKQLRQKMNHQN, the protein stability index with Saccharomyces cerevisiae [1] amounted to 0.212; in the data set with Saccharomyces cerevisiae [2], 0.663.

On to LKSLRQKMNHQN, for which the protein stability index turned out to be 0.202 in the data set on Saccharomyces cerevisiae [1] and 0.681 in the data set on Saccharomyces cerevisiae [2].

In the case of LLVYLSCVACIN, the values for the protein stability index in the data set on Saccharomyces cerevisiae [1] and in the data set on Saccharomyces cerevisiae [2] were 0.0174 and 0.0429, respectively.
